Laboratory results taken from paper doi:10.1101/2021.01.12.426377 (bioRxiv, 2021).

Experiments:
FtsA(E14R) = biological target: T1, FtsA(E14R) (E. coli, UniProt P0ABH0 1-420, E14R); test: co-sedimentation
T1 sequence: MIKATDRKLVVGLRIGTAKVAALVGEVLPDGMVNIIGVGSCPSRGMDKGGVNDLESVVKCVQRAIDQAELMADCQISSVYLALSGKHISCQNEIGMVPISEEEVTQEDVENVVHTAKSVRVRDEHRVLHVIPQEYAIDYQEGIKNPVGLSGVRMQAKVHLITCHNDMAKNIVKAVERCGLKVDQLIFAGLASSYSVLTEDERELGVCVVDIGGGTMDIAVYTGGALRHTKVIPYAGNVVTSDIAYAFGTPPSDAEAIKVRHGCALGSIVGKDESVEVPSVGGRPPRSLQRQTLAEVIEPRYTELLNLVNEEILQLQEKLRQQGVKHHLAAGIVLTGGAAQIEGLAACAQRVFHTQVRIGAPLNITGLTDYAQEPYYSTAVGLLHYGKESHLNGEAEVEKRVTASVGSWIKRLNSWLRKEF

[1] = biological target: the molecule itself; test: negative-stain transmission electron microscopy

binding result (FtsA(E14R)): binds
B1: FtsZ (Escherichia coli, wild type) (natural protein)
chain: MFEPMELTNDAVIKVIGVGGGGGNAVEHMVRERIEGVEFFAVNTDAQALRKTAVGQTIQIGSGITKGLGAGANPEVGRNAADEDRDALRAALEGADMVFIAAGMGGGTGTGAAPVVAEVAKDLGILTVAVVTKPFNFEGKKRMAFAEQGITELSKHVDSLITIPNDKLLKVLGRGISLLDAFGAANDVLKGAVQGIAELITRPGLMNVDFADVRTVMSEMGYAMMGSGVASGEDRAEEAAEMAISSPLLEDIDLSGARGVLVNITAGFDLRLDEFETVGNTIRAFASDNATVVIGTSLDPDMNDELRVTVVATGIGMDKRPEITLVTNKQVQQPVMDRYQQHGMAPLTQEQKPVAKVVNDNAPQTAKEPDYLDIPAFLRKQAD
binding result [1]: binds
